This is an account of results in article PMC2114693.

The target of this assay is human erythrocyte adducin (human) (UniProt P35611). The assay can be described thus: co-sedimentation.
human erythrocyte adducin (human), sequence (P35611 whole entry, chain 1 of 2): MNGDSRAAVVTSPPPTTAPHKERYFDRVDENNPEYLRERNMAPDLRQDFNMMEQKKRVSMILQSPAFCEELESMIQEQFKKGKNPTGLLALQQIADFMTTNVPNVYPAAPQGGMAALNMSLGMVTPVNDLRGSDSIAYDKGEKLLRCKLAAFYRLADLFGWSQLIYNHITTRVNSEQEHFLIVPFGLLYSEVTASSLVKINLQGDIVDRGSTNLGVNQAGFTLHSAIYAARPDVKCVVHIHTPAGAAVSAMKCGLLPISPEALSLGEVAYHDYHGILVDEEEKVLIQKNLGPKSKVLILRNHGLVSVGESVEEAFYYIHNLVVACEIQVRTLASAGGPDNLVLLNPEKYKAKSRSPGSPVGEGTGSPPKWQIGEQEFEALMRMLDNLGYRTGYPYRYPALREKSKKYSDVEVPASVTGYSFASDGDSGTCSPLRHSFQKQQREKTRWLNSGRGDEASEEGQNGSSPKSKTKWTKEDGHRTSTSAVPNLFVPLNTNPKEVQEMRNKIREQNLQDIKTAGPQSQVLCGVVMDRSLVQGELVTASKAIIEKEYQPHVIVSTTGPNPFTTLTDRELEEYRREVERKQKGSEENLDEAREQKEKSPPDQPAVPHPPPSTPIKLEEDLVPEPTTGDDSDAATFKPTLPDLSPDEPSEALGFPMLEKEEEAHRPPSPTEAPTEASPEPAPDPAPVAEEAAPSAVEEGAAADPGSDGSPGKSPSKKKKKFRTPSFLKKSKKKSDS
human erythrocyte adducin (human), sequence (P35612 whole entry, chain 2 of 2, further chain): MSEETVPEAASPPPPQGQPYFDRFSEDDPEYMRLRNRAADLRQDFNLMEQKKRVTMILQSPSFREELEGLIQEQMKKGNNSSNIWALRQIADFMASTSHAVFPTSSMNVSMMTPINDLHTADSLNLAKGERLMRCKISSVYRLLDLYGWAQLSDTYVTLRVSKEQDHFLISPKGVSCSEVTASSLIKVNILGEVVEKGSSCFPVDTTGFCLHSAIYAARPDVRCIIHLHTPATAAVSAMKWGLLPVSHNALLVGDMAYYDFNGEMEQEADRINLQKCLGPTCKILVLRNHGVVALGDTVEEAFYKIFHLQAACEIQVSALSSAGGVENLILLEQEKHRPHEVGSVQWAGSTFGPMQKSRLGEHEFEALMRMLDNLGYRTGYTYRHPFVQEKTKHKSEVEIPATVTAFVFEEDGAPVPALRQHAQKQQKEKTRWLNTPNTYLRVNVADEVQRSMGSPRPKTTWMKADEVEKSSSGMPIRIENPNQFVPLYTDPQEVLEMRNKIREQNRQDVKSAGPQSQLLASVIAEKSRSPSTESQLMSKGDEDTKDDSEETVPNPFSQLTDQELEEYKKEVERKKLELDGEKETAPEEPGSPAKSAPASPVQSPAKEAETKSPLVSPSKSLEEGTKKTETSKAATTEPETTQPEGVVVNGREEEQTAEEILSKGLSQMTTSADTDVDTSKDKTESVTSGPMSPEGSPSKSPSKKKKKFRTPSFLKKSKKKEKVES

Regarding “bovine brain calmodulin (from UniProt P62157 1-149) (natural protein)”, the IC50 came to 4 µM.

One may read the IC50 as the concentration at which inhibition is half-maximal. A higher IC50 goes with weaker potency in that assay.
